{"source": "patent US7164008B2", "about": "“Isolated complexes of endotoxin and MD-2” (priority 2003, dated 2007)", "molecules": {"B1": {"name": "wt MD-2: soluble polyhistidine-tagged recombinant wild-type MD-2 in conditioned insect cell culture medium (protein)", "chain": "QKQYWVCNSSDASISYTYCDKMQYPISINVNPCIELKRSKGLLHIFYIPRRDLKQLYFNLYITVNTMNLPKRKEVICRGSDDDYSFCRALKGETVNTTISFSFKGIKFSKGKYKCVVEAISGSPEEMLFCLEFVILHQPNSNHHHHHH"}}, "target": "T1, TLR4 (Homo sapiens, UniProt O00206+Q9Y6Y9)", "T1 construct": "host or cells: HEK293 stably transfected with TLR4 (HEK/TLR4)", "T1 sequence (O00206 24-839, one chain of several)": "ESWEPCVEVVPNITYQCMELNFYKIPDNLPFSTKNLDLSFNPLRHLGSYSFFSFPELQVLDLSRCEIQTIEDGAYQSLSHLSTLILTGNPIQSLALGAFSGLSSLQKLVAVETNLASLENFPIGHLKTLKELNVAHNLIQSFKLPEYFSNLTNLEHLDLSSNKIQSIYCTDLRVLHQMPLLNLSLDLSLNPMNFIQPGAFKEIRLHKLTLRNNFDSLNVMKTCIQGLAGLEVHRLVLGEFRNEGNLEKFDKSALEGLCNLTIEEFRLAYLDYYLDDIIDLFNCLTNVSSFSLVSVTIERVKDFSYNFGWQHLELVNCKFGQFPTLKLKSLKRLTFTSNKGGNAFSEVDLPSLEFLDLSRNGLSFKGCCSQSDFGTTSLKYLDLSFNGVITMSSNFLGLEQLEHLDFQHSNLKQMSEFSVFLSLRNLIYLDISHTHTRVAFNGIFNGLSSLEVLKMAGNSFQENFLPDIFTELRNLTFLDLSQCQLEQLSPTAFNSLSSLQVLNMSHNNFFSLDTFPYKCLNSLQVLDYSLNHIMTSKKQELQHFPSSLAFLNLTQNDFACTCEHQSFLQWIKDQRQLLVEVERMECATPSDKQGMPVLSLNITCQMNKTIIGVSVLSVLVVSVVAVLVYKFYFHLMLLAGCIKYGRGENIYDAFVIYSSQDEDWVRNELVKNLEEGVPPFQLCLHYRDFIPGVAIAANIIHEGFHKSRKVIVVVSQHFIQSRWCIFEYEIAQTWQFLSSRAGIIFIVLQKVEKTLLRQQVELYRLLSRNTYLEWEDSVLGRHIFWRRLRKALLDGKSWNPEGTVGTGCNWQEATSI", "assay": "HEK cell activation assay: extracellular IL-8 by ELISA", "format": "cell-based", "text": "Conditioned insect cell culture medium containing soluble, polyhistidine-tagged recombinant wild-type (wt) or C95Y mutant MD-2 were generated according to the method of Viriyakosol et al. (2001). A human embryonic kidney cell line (HEK293) that stably expresses TLR4 (HEK/TLR4), but lacks both CD14 and MD-2 (Yang et al., 2000), was used to evaluate the effect of MD-2 on the ability of lipooligosaccharide (LOS) to interact with TLR4 and promote activation.\nFIG. 1 depicts the expression and bioactivity of recombinant MD-2-His6. FIGS. 1A and 1B depict SDS-PAGE immunoblots of control culture medium (FIG. 1A, lane 1) or medium from HiFive cells infected with recombinant baculovirus encoding wt (FIG. 1A, lane 2; FIG. 1B, lanes 1–3) or C95Y MD-2 (FIG. 1B, lane 4). MD-2 was detected using anti-(His)4 antibody. All samples represent 1 μl of culture medium except B, lanes 2 and 3, which represent 0.3 and 0.1 μl and A, lane 3, which represents molecular weight markers. In FIG. 1C, HEK/TLR4 cells were incubated in HEPES-buffered HBSS+/0.1% albumin with [^14C]-LOSagg (3 ng/ml)+/−LBP (30 ng/ml) and/or (60 μl) culture medium containing wt MD-2 (MD-2) (open bars); LOSagg+LBP and sCD14 (250 ng/ml)+/−wt (closed bars) or C95Y “MD-2” (striped bars), or [^14C]-LOS-sCD14 (2 ng LOS/ml)+/−wt or C95Y “MD-2” (closed bars). After overnight incubation, extracellular IL-8 was assayed by ELISA. In FIG. 1D, HEK/TLR4 cells were incubated with increasing amounts of wt (▪) or C95Y (◯) MD-2+[^14C]-LOS-sCD14 (2 ng/ml) and cell activation measured. Results shown are from one experiment (duplicate samples) representative of four independent experiments.\nIn FIG. 2, a bioactive complex (Mr˜25,000) containing MD-2 and [^14C]-LOS is formed by incubation of [^14C]-LOS-sCD14 with wt, but not C95Y, MD-2. In FIG. 2A, dialyzed control insect cell medium (◯) or medium containing wt (♦) or C95Y ( ? ) MD-2 was incubated for 30 min, 37° C. with (1:1 vol/vol) [^14C]-LOS-sCD14 in HBSS+, 10 mM HEPES and chromatographed on Sephacryl S100. Column fractions were analyzed for [^14C]-LOS. Identical results were obtained in analytical (5 ng [^14C]-LOS/ml+200 μl culture medium) or more preparative runs (reagents concentrated 20×). In FIG. 2B, peak fractions (Mr˜25,000) from treatment of [^14C]-LOS-sCD14 with wt MD-2 (FIG. 2A) were re-chromatographed on S100 in HBSS+, 10 mM HEPES without HSA; recovery of [^14C]-LOS was >80%. In FIG. 2C, HEK (□) or HEK/TLR4 (▪) were incubated overnight with the indicated amounts of LOS added as purified Mr˜25,000 (LOS-MD-2) complex. Cell activation was measured by IL-8 accumulation. Results shown correspond to one experiment, in duplicate, representative of three similar experiments. FIGS. 2D and 2E depict adsorption and elution of bioactive Mr˜25,000 complex to HisBind resin. Peak fractions of the purified complex (FIG. 2B; 10 ng [^14C]-LOS) were dialyzed against PBS and incubated with HisBind resin (0.125 ml) for 1 hr at 25° C. and processed as described in Methods. Non-adsorbed (Flow-thru) and adsorbed material eluted with 200 mM imidazole were precipitated with trichloroacetic acid to concentrate sample for SDS-PAGE/immunoblot analysis. […]\nPurified [^14C]-LOSagg or [^14C]-LOS-sCD14 (3 ng LOS/ml)+/−indicated proteins (30 ng/ml LBP, 250 ng/ml sCD14, 60 μl culture medium) were incubated at 37° C. for 30 min. After this incubation, samples were analyzed by gel filtration chromatography to monitor formation of [^14C]-LOS-MD-2 and by incubation with HEK/TLR4 cells to measure cell activation. […]", "data": [{"molecule": "B1", "values": [{"measurement": "MD-2 concentration producing maximum cell activation", "setting": "HEK/TLR4 with [^14C]-LOS-sCD14 (2 ng/ml)", "result": 30, "unit": "ng/mL"}, {"measurement": "activation of HEK/TLR4 cells by LOS-sCD14 (or LOSagg+LBP+sCD14) on addition of medium containing MD-2", "setting": "IL-8 release, LOS-sCD14 2 ng LOS/ml", "result": "robust activation"}, {"measurement": "inhibition of activation of HEK/TLR4 by [^14C]-LOS-MD-2 by added MD-2", "setting": "[^14C]-LOS-MD-2 0.3 ng/ml, increasing amounts of conditioned medium", "result": "dose-dependent inhibition"}]}]}
